One molecule from paper PMC8191757, “m6A RNA methylation of major satellite repeat transcripts facilitates chromatin association and RNA:DNA hybrid formation in mouse heterochromatin” can be followed below.

In the series the target is T1, NLS-HBD(H1)-eGFP (mouse, UniProt O70338 27-76).
T1 chain: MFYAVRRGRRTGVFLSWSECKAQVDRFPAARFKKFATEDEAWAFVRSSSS
The series can be described thus: EMSA; comparable to unmodified; EMSA: 20 nM hybrid, 125 nM-0.5 uM protein, 20 mM Tris-HCl pH 8.0, 150 mM NaCl, 5 mM MgCl2, 12.5% glycerol, 0.05% Triton X-100, 1 mM DTT, 1 h at 4 C. The note with it: protein: recombinant, tags: N-terminal NLS PKKKRKV, 6xHis-MBP cleaved by AcTEV, label: 5'-Cy5 on RNA, blunt.

B1: MSR SR2 RNA:DNA hybrid, m6A (DNA:RNA)
RNA: UUUUCCACCUUUUUCAGUUUUCCUCGCCAUAUUUC
DNA: GAAATATGGCGAGGAAAACTGAAAAAGGTGGAAAA
modifications: m6A at RNA positions 7, 16, 29, 31
For the molecule B1, the binding result is listed as “binds”.
